{"source": "patent US20140072613A1", "about": "“Compositions and Methods for Treating Cutaneous Scarring” (priority 2012, published 2014)", "key": {"[1]": {"molecular_target": "266 human kinases (Homo sapiens, UniProt P10721, V654A)", "test": "biochemical", "format": "biochemical", "conditions": "cKit(V654A)(h); 100 μM", "in_short": "(§1)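 Read-out by scintillation counting of radiolabelled, positively charged substrate bound to negatively charged filter; activity normalised to 100% control. Phosphate transferred from radiolabelled ATP.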"}, "[2]": {"molecular_target": "T1, 266 human kinases (Homo sapiens, UniProt P21709)", "T1 sequence (P21709 26-976)": "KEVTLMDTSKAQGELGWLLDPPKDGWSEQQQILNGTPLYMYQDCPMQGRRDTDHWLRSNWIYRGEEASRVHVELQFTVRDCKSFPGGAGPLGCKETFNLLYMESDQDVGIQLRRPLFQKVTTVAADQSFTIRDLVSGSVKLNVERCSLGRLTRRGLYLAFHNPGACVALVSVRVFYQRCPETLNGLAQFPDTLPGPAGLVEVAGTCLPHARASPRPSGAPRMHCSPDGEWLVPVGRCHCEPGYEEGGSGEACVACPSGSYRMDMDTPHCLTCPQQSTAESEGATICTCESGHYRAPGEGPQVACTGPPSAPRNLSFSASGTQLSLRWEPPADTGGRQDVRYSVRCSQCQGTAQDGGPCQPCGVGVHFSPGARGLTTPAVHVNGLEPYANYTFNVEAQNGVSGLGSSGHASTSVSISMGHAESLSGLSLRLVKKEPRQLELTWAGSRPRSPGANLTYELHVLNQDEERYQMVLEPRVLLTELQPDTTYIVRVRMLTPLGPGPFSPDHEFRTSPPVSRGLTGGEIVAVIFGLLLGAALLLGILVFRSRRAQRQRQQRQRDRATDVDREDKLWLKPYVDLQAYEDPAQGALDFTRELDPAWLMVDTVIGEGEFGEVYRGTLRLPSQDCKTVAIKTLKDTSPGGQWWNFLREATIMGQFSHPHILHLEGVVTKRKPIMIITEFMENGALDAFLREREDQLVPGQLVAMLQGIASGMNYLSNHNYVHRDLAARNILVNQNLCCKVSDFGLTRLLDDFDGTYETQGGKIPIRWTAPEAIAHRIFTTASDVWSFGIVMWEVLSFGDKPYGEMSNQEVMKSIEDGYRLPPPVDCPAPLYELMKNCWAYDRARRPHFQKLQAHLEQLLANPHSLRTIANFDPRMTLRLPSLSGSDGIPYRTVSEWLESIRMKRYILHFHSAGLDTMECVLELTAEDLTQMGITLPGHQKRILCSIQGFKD", "test": "biochemical", "format": "biochemical", "conditions": "EphA1(h); 100 μM", "in_short": "as §1"}}}
{"sequence": "HRRIKAWLKKIKALARQLGVAA (mammal) [MMI-0500]", "values": [{"measurement": "% activity", "setting": "[1]", "value": 223, "unit": "%"}, {"measurement": "% activity", "setting": "[2]", "value": 40, "unit": "%"}]}
